# According to patent publication US20180208675A1 (Novo Nordisk, published 2018):
# Target: T1, human TFPI alpha (full-length TFPIα) (human, UniProt P10646 29-304)
# T1 construct: Analyte in SPR and added to plasma (2 or 20 nM) in thrombin generation assays; also called human TFPIα
# Assay: SPR (Biacore T200), Fab captured on Human Fab Binder, TFPIα in solution, 1:1 fit
# Source text: (§1) Binding interaction analysis was obtained by Surface Plasmon Resonance in a Biacore T200 instrument. Human Fab Binder (Human Fab Capture Kit, GE Healthcare) was immobilized to a series S CM4 sensor chip (GE Healthcare) in flow-cells 1-4 at 10000 response units (RU) using the amine coupling protocol available within the Biacore T-200 control software (GE Healthcare) and the reagents provided with the Amine Coupling Kit (GE Healthcare).The relevant Fab fragment or Fab-Fab conjugate was captured in flow-cell 2, 3 or 4 at a fixed concentration. Different concentrations of TFPI were tested by diluting TFPI in the running buffer (10 mM Hepes, pH 7.4, 300 mM NaCl, 5 mM CaCl₂, 0.05% Surfactant P20, 1 mg/ml BSA). Each sample was assayed using 300 seconds of contact time followed by 600 seconds of dissociation time at 50 μl/min flow rate. A buffer blank was also assayed. The sensor surface was regenerated with 10 mM Glycine pH 2.1 with two cycles each of 30 seconds at 50 μl/min flow rate.
# (§2) Biacore T200 Evaluation software was used to analyse the data. Determination of binding constants (kₒₙ, koff, KD) was obtained assuming a 1:1 interaction of TFPI and the Fab variant or Fab-Fab conjugate of interest.
row,Kd [nM],Binder
1,1.7,"Fab 2F22 (Fab, V domains shown, KPI-1 specific; HC truncated after the hinge cysteine; also called Fab fragment 2F22; extended Fab 2F22 (Fab for chemical coupling)) VH: QVQLKQSGPGLVQPSQSLSITCTVSGFSLTNYGVHWVRQSPGKGLEWLAVIWRGGSIDYNAAFMSRLSITKDNSKSQVFFKMNSLQADDTAIYYCAKNSHGNYVGYAMDYWGQGTSVTVSS VL: GIVMTQSQKFMSTTVGDRVSITCKASQSVGPAVAWYQQKPGQSPKLLIYSASNRYTGVPDRFTGSGSGADFTLTISNLHSEDLADYFCQQYTSYPTFGGGTKLEIKR"

# Target: T1, human TFPI alpha (full-length TFPIα)
# Assay: SPR (Biacore T200), Fab-Fab conjugate captured on Human Fab Binder, TFPIα in solution, 1:1 fit
# Source text: as §1, §2
Binder,Kd [nM],koff [s⁻¹],kon [M⁻¹ s⁻¹]
"Fab 0094-Fab 0089 conjugate 9004 (bispecific antibody, C-terminal cysteine coupled through the bis-maleimide linker to the Fab 0094 heavy chain; C-terminal cysteine coupled through 1,16-N,N'-bis(maleimido)-4,13-diaza-7,10-dioxa-3,14-dioxohexadecane to the C-terminal cysteine of the Fab 0089 heavy chain, KPI-2/KPI-3) heavy 1: EVQLVESGGGLVKPGGSLRLSCAASGFTFSNYAMSWVRQAPGKGLEWVSTISRSGSYSYYPDSVKGRFTISRDNAKNSLYLQMNSLRAEDTAVYYCARLGGYDEGDAMDSWGQGTTVTVSSASTKGPSVFPLAPCSRSTSESTAALGCLVKDYFPEPVTVSWNSGALTSGVHTFPAVLQSSGLYSLSSVVTVPSSSLGTKTYTCNVDHKPSNTKVDKRVESKYGPPC light 1: DIVMTQTPLSLSVTPGQPASISCKSSQSLLESDGKTYLNWYLQKPGQSPQLLIYLVSILDSGVPDRFSGSGSGTDFTLKISRVEAEDVGVYYCLQATHFPQTFGGGTKVEIKRTVAAPSVFIFPPSDEQLKSGTASVVCLLNNFYPREAKVQWKVDNALQSGNSQESVTEQDSKDSTYSLSSTLTLSKADYEKHKVYACEVTHQGLSSPVTKSFNRGEC heavy 2: QVQLQQSGAELVKPGASVKLSCKASGYTFISYYMYWVKQRPGQGLEWIGEINPSNGDTNLNEKFKSKATLTVDKSSSTVYMQLSSLTSEDSAVYYCTRWDRFDGFVYWGQGTLVTVSAASTKGPSVFPLAPCSRSTSESTAALGCLVKDYFPEPVTVSWNSGALTSGVHTFPAVLQSSGLYSLSSVVTVPSSSLGTKTYTCNVDHKPSNTKVDKRVESKYGPPC light 2: ETTVTQSPASLSMAIGGKVTIRCIISTNIDDDINWYQQKPGEPPKLLISEGNTLRPGVPSRFSSSGYGTDFVFTIENMLSEDVADYYCLQSDDLPYTFGGGTKLEIKRTVAAPSVFIFPPSDEQLKSGTASVVCLLNNFYPREAKVQWKVDNALQSGNSQESVTEQDSKDSTYSLSSTLTLSKADYEKHKVYACEVTHQGLSSPVTKSFNRGEC",0.036,0.00022,6.2e+06
"Fab 0095-Fab 0089 conjugate 9005 (bispecific antibody, C-terminal cysteine coupled through the bis-maleimide linker to the Fab 0095 heavy chain; C-terminal cysteine coupled through 1,16-N,N'-bis(maleimido)-4,13-diaza-7,10-dioxa-3,14-dioxohexadecane to the C-terminal cysteine of the Fab 0089 heavy chain, KPI-2/KPI-3; also called Fab 0095-Fab 0089 (9005)) heavy 1: EVQLVESGGGLVKPGGSLRLSCAASGFTFSNYAMSWVRQAPGKGLEWVSTISRSGSYSYYADSVKGRFTISRDNAKNSLYLQMNSLRAEDTAVYYCARLGGYDEGDAMDSWGQGTTVTVSSASTKGPSVFPLAPCSRSTSESTAALGCLVKDYFPEPVTVSWNSGALTSGVHTFPAVLQSSGLYSLSSVVTVPSSSLGTKTYTCNVDHKPSNTKVDKRVESKYGPPC light 1: DIVMTQTPLSLSVTPGQPASISCKSSQSLLESDGKTYLNWLLQRPGESPKLLIYLVSILDSGVPDRFSGSGSGTDFTLKISRVEAEDVGVYYCLQATHFPQTFGGGTKVEIKRTVAAPSVFIFPPSDEQLKSGTASVVCLLNNFYPREAKVQWKVDNALQSGNSQESVTEQDSKDSTYSLSSTLTLSKADYEKHKVYACEVTHQGLSSPVTKSFNRGEC heavy 2: QVQLQQSGAELVKPGASVKLSCKASGYTFISYYMYWVKQRPGQGLEWIGEINPSNGDTNLNEKFKSKATLTVDKSSSTVYMQLSSLTSEDSAVYYCTRWDRFDGFVYWGQGTLVTVSAASTKGPSVFPLAPCSRSTSESTAALGCLVKDYFPEPVTVSWNSGALTSGVHTFPAVLQSSGLYSLSSVVTVPSSSLGTKTYTCNVDHKPSNTKVDKRVESKYGPPC light 2: ETTVTQSPASLSMAIGGKVTIRCIISTNIDDDINWYQQKPGEPPKLLISEGNTLRPGVPSRFSSSGYGTDFVFTIENMLSEDVADYYCLQSDDLPYTFGGGTKLEIKRTVAAPSVFIFPPSDEQLKSGTASVVCLLNNFYPREAKVQWKVDNALQSGNSQESVTEQDSKDSTYSLSSTLTLSKADYEKHKVYACEVTHQGLSSPVTKSFNRGEC",0.038,0.00023,6.1e+06

# The next lines start with the values.
Kd [nM],koff [s⁻¹],kon [M⁻¹ s⁻¹],Binder
0.17,0.0067,4e+07,"Fab 0313-Fab 0089 conjugate 9031 (bispecific antibody, C-terminal cysteine coupled through the bis(acetyl)ethylene diamine linker to the Fab 0313 heavy chain; C-terminal cysteine coupled through bis(bromoacetyl)ethylene diamine to the C-terminal cysteine of the Fab 0089 heavy chain, KPI-2/KPI-3; also called Fab 0313-FAb 0089 (9031)) heavy 1: EVQLVESGGGLVKPGGSLRLSCAASGFTFSNYAMSWVRQAPGKGLEWVSTISRSGSYSYYADSVKGRFTISRDNAKNSLYLQMNSLRAEDTAVYYCARLGGYDEGDAMDSWGQGTTVTVSSASTKGPSVFPLAPCSRSTSESTAALGCLVKDYFPEPVTVSWNSGALTSGVHTFPAVLQSSGLYSLSSVVTVPSSSLGTKTYTCNVDHKPSNTKVDKRVESKYGPPC light 1: DIVMTQTPLSLSVTPGQPASISCKSSQSLLESDGKTYLNWYLQKPGQSPQLLIYLVSILDSGVPDRFSGSGSGTDFTLKISRVEAEDVGVYYCLQATHFPQTFGGGTKVEIKRTVAAPSVFIFPPSDEQLKSGTASVVCLLNNFYPREAKVQWKVDNALQSGNSQESVTEQDSKDSTYSLSSTLTLSKADYEKHKVYACEVTHQGLSSPVTKSFNRGEC heavy 2: QVQLQQSGAELVKPGASVKLSCKASGYTFISYYMYWVKQRPGQGLEWIGEINPSNGDTNLNEKFKSKATLTVDKSSSTVYMQLSSLTSEDSAVYYCTRWDRFDGFVYWGQGTLVTVSAASTKGPSVFPLAPCSRSTSESTAALGCLVKDYFPEPVTVSWNSGALTSGVHTFPAVLQSSGLYSLSSVVTVPSSSLGTKTYTCNVDHKPSNTKVDKRVESKYGPPC light 2: ETTVTQSPASLSMAIGGKVTIRCIISTNIDDDINWYQQKPGEPPKLLISEGNTLRPGVPSRFSSSGYGTDFVFTIENMLSEDVADYYCLQSDDLPYTFGGGTKLEIKRTVAAPSVFIFPPSDEQLKSGTASVVCLLNNFYPREAKVQWKVDNALQSGNSQESVTEQDSKDSTYSLSSTLTLSKADYEKHKVYACEVTHQGLSSPVTKSFNRGEC"
0.0053,3.8e-05,7.1e+06,"Fab 0088-Fab 0089 conjugate 9002 (bispecific antibody, C-terminal cysteine coupled through the bis-maleimide linker to the Fab 0088 heavy chain; C-terminal cysteine coupled through 1,16-N,N'-bis(maleimido)-4,13-diaza-7,10-dioxa-3,14-dioxohexadecane to the C-terminal cysteine of the Fab 0089 heavy chain, KPI-2/KPI-3) heavy 1: EVQLVESGGGLVKPGGSLRLSCAASGFTFSNYAMSWVRQTPEKRLEWVATISRSGSYSYFPDSVQGRFTISRDNAKNSLYLQMNSLRAEDTAVYYCARLGGYDEGDAMDSWGQGTTVTVSSASTKGPSVFPLAPCSRSTSESTAALGCLVKDYFPEPVTVSWNSGALTSGVHTFPAVLQSSGLYSLSSVVTVPSSSLGTKTYTCNVDHKPSNTKVDKRVESKYGPPC light 1: DIVMTQTPLSLSVTPGQPASISCKSSQSLLESDGKTYLNWYLQKPGQSPQLLIYLVSILDSGVPDRFSGSGSGTDFTLKISRVEAEDVGVYYCLQATHFPQTFGGGTKVEIKRTVAAPSVFIFPPSDEQLKSGTASVVCLLNNFYPREAKVQWKVDNALQSGNSQESVTEQDSKDSTYSLSSTLTLSKADYEKHKVYACEVTHQGLSSPVTKSFNRGEC heavy 2: QVQLQQSGAELVKPGASVKLSCKASGYTFISYYMYWVKQRPGQGLEWIGEINPSNGDTNLNEKFKSKATLTVDKSSSTVYMQLSSLTSEDSAVYYCTRWDRFDGFVYWGQGTLVTVSAASTKGPSVFPLAPCSRSTSESTAALGCLVKDYFPEPVTVSWNSGALTSGVHTFPAVLQSSGLYSLSSVVTVPSSSLGTKTYTCNVDHKPSNTKVDKRVESKYGPPC light 2: ETTVTQSPASLSMAIGGKVTIRCIISTNIDDDINWYQQKPGEPPKLLISEGNTLRPGVPSRFSSSGYGTDFVFTIENMLSEDVADYYCLQSDDLPYTFGGGTKLEIKRTVAAPSVFIFPPSDEQLKSGTASVVCLLNNFYPREAKVQWKVDNALQSGNSQESVTEQDSKDSTYSLSSTLTLSKADYEKHKVYACEVTHQGLSSPVTKSFNRGEC"
